{"source": "paper PMC6385983", "about": "“SNZ3 Encodes a PLP Synthase Involved in Thiamine Synthesis in Saccharomyces cerevisiae” (G3: Genes|Genomes|Genetics, 2018)", "proteins": {"B1": {"name": "Snz3p (Saccharomyces cerevisiae S288C) (protein)", "chain": "MSEFKVKTGLAQMLKGGVIMDVVTPEQAIIAERAGACAVMALERIPADMRKSGQVCRMSDPRMIKEIMEAVSIPVMAKVRIGHFVEAQILEELQVDYIDESEVLTPADWTHHIEKHNFKVPFVCGAKDLGEALRRINEGAAMIRTKGEAGTGDVSEAVKHITKIKAEIQQYKENLKTESDFAAKATELRVPVDLLKTTLSEGKLPVVNFAAGGVATPADAALLMQLGCEGVFVGSGIFKSSDPEKLACAIVEATTHYDNPAKLLQVSSDLGDLMGGISIQSINEAGGKNGARLSEIGW", "notes": "full-length SNZ3 in pTEV5 (NheI/NcoI), His6 tag removed with rTEV, expressed in E. coli BL21-AI; assayed without Sno glutaminase subunit"}}, "substrate": "O=CC(O)COP(=O)(O)O", "experiment": "purified protein", "format": "biochemical, Saccharomyces cerevisiae", "settings": "1 mM ribose-5-phosphate, 10 mM ammonium sulfate (20 mM NH4), 50 mM Tris-HCl pH 8.0, 37 °C, 85 µM Snz3p, no glutaminase subunit, racemic D/L substrate", "data": [{"protein": "B1", "values": [{"measurement": "Km", "value": "290 ± 30", "unit": "µM"}, {"measurement": "kcat", "value": 0.0007, "unit": "s⁻¹"}]}]}
